# Test results published in the RNAGym collection of RNA variant scans (doi:10.7554/elife.80360).
# B1: CPEB3 Ribozyme (parent)
# chain: GGGGGCCACAGCAGAAGCGUUCACGUCGCGGCCCCUGUCAGAUUCUGGUGAAUCUGCGAAUUCUGCUGU
# Variants of: B1
# Assay: self-cleavage, relative activity (ratio to wild type); higher = more cleavage; co-transcriptional
row,Variant,self-cleavage
1,G5A G50A,0.941
2,G5C C29U,0.133
3,G5C C29A,0.144
4,G5A A10C,0.914
5,G5A A10G,0.915
6,G5A A10U,0.953
7,G4U G58A,0.377
8,G4U G58C,0.457
9,G5A C22G,0.0902
10,G5A C22U,0.129
11,G5C G25U,0.0626
12,G5C G25C,0.0981
13,G5C A10C,0.176
14,G5C A10G,0.289
15,G4U G17A,0.114
16,G5C U36C,0.244
17,G5C U36G,0.458
18,G5C U36A,0.0886
19,G5C U64A,0.246
20,G5C U64G,0.105
21,G5C U64C,0.262
22,G4U G19U,0.112
23,G4U G19A,0.0808
24,G4U G19C,0.0957

row,Variant,self-cleavage
1,G5C G17C,0.0976
2,G5C G17A,0.0588
3,G5C G19A,0.126
4,G5C G19U,0.121
5,G5C U69G,0.437
6,G5C U69A,0.307
7,G5A G56C,0.407
8,G5A G56A,0.759
9,G5A G56U,0.772
10,G5A A42G,0.812
11,G5A A42U,0.71
12,G4U G50A,0.752
13,G5A U36A,0.146
14,G5C C24U,0.112
15,G5C C24G,0.0631
16,G5U A8G,0.228
17,G5U A8C,0.346
18,G5A U64G,0.729
19,G5A U64C,0.676
20,G5A U64A,0.71
21,G5A G65A,0.812
22,G5A G65C,0.532
23,G5C G50A,0.202
24,G5C G50C,0.182

row,Variant,self-cleavage
1,G5A C39A,0.533
2,G5A C39G,0.752
3,G4U U69A,0.952
4,G5C C27U,0.138
5,G5C C12A,0.141
6,G5A C57A,0.224
7,G5A C57U,0.304
8,G5A C57G,0.234
9,G4U G47U,0.873
10,G4U G47C,0.793
11,G4U G47A,0.804
12,G5C C33G,0.227
13,G5C C33A,0.302
14,G4U G65A,0.521
15,G5A C29U,0.303
16,G5A C29A,0.229
17,G5C G68A,0.473
18,G5C G68C,0.317
19,G5C G68U,0.483
20,G5A C33A,0.296
21,G5A C33G,0.136
22,G5C C32G,0.968
23,G5C C45U,0.266
24,G5C C45G,0.178

row,Variant,self-cleavage
1,G5A G41A,0.512
2,G5A G41C,0.359
3,G5A G41U,0.488
4,G4U U21C,0.4
5,G4U U21A,0.654
6,G5U A13G,0.271
7,G4U U49G,0.357
8,G4U G37A,0.144
9,G4U G37C,0.169
10,G4U G30C,0.108
11,G4U G30U,0.103
12,G5A A52C,0.837
13,G5A A52G,0.92
14,G5A A52U,0.891
15,G5A C24G,0.0961
16,G5A C24A,0.341
17,G5A C24U,0.378
18,G5A U49A,0.926
19,G5A U21A,0.837
20,G5A U21C,0.56
21,G4U U55C,0.298
22,G4U U55G,0.203
23,G4U U55A,0.496
24,G5A U62C,0.423

row,Variant,self-cleavage
1,G5C G58U,0.207
2,G5A G19C,0.0992
3,G5A G19A,0.12
4,G5C U26G,0.228
5,G5C U26A,0.156
6,G5A C27A,0.141
7,G5A C27G,0.104
8,G5A C27U,0.201
9,G5C U67C,0.254
10,G5C U67G,0.355
11,G5C U67A,0.338
12,G5A A59C,0.259
13,G5A A59G,0.753
14,G4U G28C,0.0704
15,G5A C66A,0.727
16,G5A C66G,0.826
17,G5C C57A,0.0507
18,G5C C57G,0.098
19,G4U G5U,0.0723
20,G5A G25C,0.137
21,G5A G25A,0.114
22,G5A G25U,0.0968
23,G5A U61G,0.468
24,G5A U61A,0.351

row,Variant,self-cleavage
1,G5A U61C,0.299
2,G4U G68U,0.928
3,G5C G14U,0.109
4,G4U G56C,0.339
5,G4U G56U,0.559
6,G5C C18U,0.148
7,G5C C18A,0.097
8,G5C C18G,0.12
9,G5A G30U,0.125
10,G5C A40C,0.213
11,G5C A40G,0.171
12,G5C U62A,0.169
13,G5C G47U,0.289
14,G5C G47A,0.201
15,G5C G47C,0.246
16,G5C C63U,0.207
17,G5C C63G,0.109
18,G5C C63A,0.119
19,G5A U67G,0.957
20,G5A U67C,0.963
21,G5A A51U,0.859
22,G5A A51G,0.849
23,G5A A51C,0.82
24,G5C U38G,0.0921

row,Variant,self-cleavage
1,G5C A52C,0.259
2,G5C A52G,0.287
3,G5C A52U,0.123
4,G5A U69G,1.03
5,G5A U69C,1.05
6,G5A U69A,0.994
7,G5A A40C,0.213
8,G5A A40G,0.866
9,G5C A23C,0.228
10,G5C A23U,0.333
11,G5C A23G,0.144
12,G5C A8C,0.199
13,G5C A8U,0.156
14,G5C A8G,0.242
15,G5U A10C,0.604
16,G5U A10G,0.543
17,G5U A10U,0.581
18,G5A A16U,0.639
19,G5A A16G,0.811
20,G4U G48A,0.856
21,G5A U26A,0.498
22,G5A U26C,0.853
23,G5A U26G,0.611
